Biological target: dNxf2^UBA (recombinant) (Drosophila) (UniProt Q9VV73)
Assay: ITC

Chain of UniProt Q9VV73 (Q9VV73 whole entry): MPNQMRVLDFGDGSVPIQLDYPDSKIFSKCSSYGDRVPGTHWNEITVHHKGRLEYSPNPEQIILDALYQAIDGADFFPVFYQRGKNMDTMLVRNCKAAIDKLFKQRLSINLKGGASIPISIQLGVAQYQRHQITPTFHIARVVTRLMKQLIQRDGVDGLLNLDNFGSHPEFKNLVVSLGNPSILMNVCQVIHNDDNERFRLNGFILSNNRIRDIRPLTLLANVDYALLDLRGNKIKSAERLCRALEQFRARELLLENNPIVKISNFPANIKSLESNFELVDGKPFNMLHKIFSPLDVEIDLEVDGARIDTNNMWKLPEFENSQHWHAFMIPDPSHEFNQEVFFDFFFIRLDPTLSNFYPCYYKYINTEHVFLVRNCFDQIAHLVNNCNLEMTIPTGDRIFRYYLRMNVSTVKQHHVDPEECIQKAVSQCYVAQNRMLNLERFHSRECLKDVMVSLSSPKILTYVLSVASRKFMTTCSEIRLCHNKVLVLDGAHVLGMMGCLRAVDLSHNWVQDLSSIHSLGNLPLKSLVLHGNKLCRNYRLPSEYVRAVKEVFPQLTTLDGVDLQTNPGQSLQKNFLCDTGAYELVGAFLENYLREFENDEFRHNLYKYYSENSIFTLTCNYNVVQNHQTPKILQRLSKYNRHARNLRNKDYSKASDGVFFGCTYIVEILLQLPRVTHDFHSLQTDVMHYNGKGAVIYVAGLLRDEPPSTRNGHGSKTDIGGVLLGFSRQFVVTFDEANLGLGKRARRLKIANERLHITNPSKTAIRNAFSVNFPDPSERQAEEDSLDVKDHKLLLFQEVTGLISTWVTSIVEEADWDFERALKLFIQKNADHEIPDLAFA

Substance: Purified Panx^NIR (from UniProt Q9W2H9 315-343) (domain or fragment)
- Kd: 3.2 µM

Reference: publication doi:10.1101/608273
